According to patent US20230203124A1:

Experiments:
[1] = target: mutated ERBB2IP 25-AA long peptide presented by HLA-DQB1*0601 (human)
[2] = target: wild-type ERBB2IP 25-AA long peptide on autologous B cells (HLA-DQB1*0601) (human)
[3] = target: mutated ALK 25-AA long peptide on autologous B cells (HLA-DQB1*0601) (human)

% IFN-γ+/mTCRβ- cells, intracellular IFN-γ by flow cytometry [1]: 0%
% IFN-γ+/mTCRβ- cells, intracellular IFN-γ by flow cytometry [2]: 0%
% IFN-γ+/mTCRβ- cells, intracellular IFN-γ by flow cytometry [3]: 1%
Substance: Mock-transduced autologous open-repertoire peripheral blood T cells (cells without a defined receptor)
